Experimental data as given in US20240117018A1.

Columns and labels:
Experiment in all cases: cell-based or functional assay
[1] = molecular target: Env of HIV-1 pseudovirus 6240_08_TA5_4622 (HIV-1)
[2] = molecular target: Env of HIV-1 pseudovirus 6244_13_B5_4576 (HIV-1)
[3] = molecular target: Env of HIV-1 pseudovirus 9004SS_A3_4 (HIV-1)
[4] = molecular target: Env of HIV-1 pseudovirus CNE19 (HIV-1)
[5] = molecular target: Env of HIV-1 pseudovirus CNE20 (HIV-1)
[6] = molecular target: Env of HIV-1 pseudovirus CNE21 (HIV-1)
[7] = molecular target: Env of HIV-1 pseudovirus Ce1176_A3 (HIV-1)
[8] = molecular target: Env of HIV-1 pseudovirus Ce2010_F5 (HIV-1)
[9] = molecular target: Env of HIV-1 pseudovirus Ce704809221_1B3 (HIV-1)
[10] = molecular target: Env of HIV-1 pseudovirus Du422.1 (HIV-1)
[11] = molecular target: Env of HIV-1 pseudovirus HIV-001428-2.42 (HIV-1)
[12] = molecular target: Env of HIV-1 pseudovirus Q23.17 (HIV-1)
[13] = molecular target: Env of HIV-1 pseudovirus WEAU_d15_410_787 (HIV-1)
[14] = molecular target: Env of HIV-1 pseudovirus ZM109F.PB4 (HIV-1)
[15] = molecular target: Env of HIV-1 pseudovirus ZM249M.PL1 (HIV-1)
[16] = molecular target: HIV-1 Env pseudovirus 1012_11_TC21_3257 (HIV-1)
[17] = molecular target: HIV-1 Env pseudovirus 249M B10 (HIV-1)
[18] = molecular target: HIV-1 Env pseudovirus 6240_08_TA5_4622 (HIV-1)
[19] = molecular target: HIV-1 Env pseudovirus 6244_13_B5_4576 (HIV-1)
[20] = molecular target: HIV-1 Env pseudovirus 7030102001E5(Rev-) (HIV-1)
[21] = molecular target: HIV-1 Env pseudovirus BF1266.431a (HIV-1)
[22] = molecular target: HIV-1 Env pseudovirus CNE30 (HIV-1)
[23] = molecular target: HIV-1 Env pseudovirus CNE52 (HIV-1)
[24] = molecular target: HIV-1 Env pseudovirus Ce0682_E4 (HIV-1)
[25] = molecular target: HIV-1 Env pseudovirus Q23.17 (HIV-1)
[26] = molecular target: HIV-1 Env pseudovirus THRO4156.18 (HIV-1)
[27] = molecular target: HIV-1 Env pseudovirus ZM135M.PL10a (HIV-1)

With 10-1074 (antibody) the IC50 [1] was 0.068 µg/mL, the IC80 [1] was 0.306 µg/mL and the IC50 [2] was 0.202 µg/mL. For the same substance, the IC80 [2] was 0.922 µg/mL, the IC50 [3] was 0.011 µg/mL and the IC80 [3] was 0.03 µg/mL. It also gave an IC50 [4] of 50 µg/mL, an IC80 [4] of over 50 µg/mL and an IC50 [5] of under 0.001 µg/mL. For the same substance, the IC80 [5] was 0.005 µg/mL, the IC50 [6] was 0.067 µg/mL and the IC80 [6] was 0.181 µg/mL. It also gave an IC50 [7] of 0.019 µg/mL, an IC80 [7] of 0.07 µg/mL and an IC50 [8] of over 50 µg/mL. It also gave an IC80 [8] of over 50 µg/mL, an IC50 [9] of 0.139 µg/mL and an IC80 [9] of 0.696 µg/mL. For the same substance, the IC50 [10] was 0.045 µg/mL, the IC80 [10] was 0.166 µg/mL and the IC50 [11] was 0.044 µg/mL. For the same substance, the IC80 [11] was 0.261 µg/mL, the IC50 [12] was 0.006 µg/mL and the IC80 [12] was 0.021 µg/mL. It also gave an IC50 [13] of 0.104 µg/mL, an IC80 [13] of 0.375 µg/mL and an IC50 [14] of over 50 µg/mL. The IC80 [14] was over 50 µg/mL, the IC50 [15] was over 50 µg/mL and the IC80 [15] was over 50 µg/mL.
Work on 10E8 (antibody) yielded an IC50 [1] of 0.756 µg/mL, an IC80 [1] of 5.59 µg/mL and an IC50 [2] of 0.086 µg/mL. The IC80 [2] was 0.809 µg/mL, the IC50 [3] was 1.16 µg/mL and the IC80 [3] was 6.76 µg/mL. The IC50 [4] was 0.666 µg/mL, the IC80 [4] was 6.49 µg/mL and the IC50 [5] was 1.25 µg/mL. For the same substance, the IC80 [5] was 6.58 µg/mL, the IC50 [6] was 1.9 µg/mL and the IC80 [6] was over 10 µg/mL. For the same substance, the IC50 [7] was 0.867 µg/mL, the IC80 [7] was 3.92 µg/mL and the IC50 [8] was 1.84 µg/mL. It also gave an IC80 [8] of 8.61 µg/mL, an IC50 [9] of 0.058 µg/mL and an IC80 [9] of 0.319 µg/mL. The IC50 [10] was 0.351 µg/mL, the IC80 [10] was 1.88 µg/mL and the IC50 [11] was 0.809 µg/mL. For the same substance, the IC80 [11] was 7.3 µg/mL, the IC50 [12] was 1.64 µg/mL and the IC80 [12] was 7.04 µg/mL. It also gave an IC50 [13] of over 10 µg/mL, an IC80 [13] of over 10 µg/mL and an IC50 [14] of 0.295 µg/mL. For the same substance, the IC80 [14] was 1.89 µg/mL, the IC50 [15] was 1.51 µg/mL and the IC80 [15] was 6.29 µg/mL.
N49P7.2 (antibody) was tested, and the IC50 [16] was 0.06 µg/mL, the IC80 [16] was 0.285 µg/mL and the MPI [16] was 100. The IC50 [17] was 0.095 µg/mL, the IC80 [17] was 0.349 µg/mL and the MPI [17] was 100. The IC50 [18] was 0.812 µg/mL, the IC80 [18] was 2.87 µg/mL and the MPI [18] was 100. It also gave an IC50 [19] of 0.331 µg/mL, an IC80 [19] of 1.04 µg/mL and an MPI [19] of 100. The IC50 [20] was 0.313 µg/mL, the IC80 [20] was 1.03 µg/mL and the MPI [20] was 100. For the same substance, the IC50 [21] was 0.029 µg/mL, the IC80 [21] was 0.159 µg/mL and the MPI [21] was 100. For the same substance, the IC50 [22] was 0.362 µg/mL, the IC80 [22] was 1.2 µg/mL and the MPI [22] was 100. For the same substance, the IC50 [23] was 0.03 µg/mL, the IC80 [23] was 0.088 µg/mL and the MPI [23] was 100. For the same substance, the IC50 [24] was 0.067 µg/mL, the IC80 [24] was 0.233 µg/mL and the MPI [24] was 100. It also gave an IC50 [25] of 0.051 µg/mL, an IC80 [25] of 0.2 µg/mL and an MPI [25] of 100. For the same substance, the IC50 [26] was 6.29 µg/mL, the IC80 [26] was 33.3 µg/mL and the MPI [26] was 94. For the same substance, the IC50 [27] was 0.596 µg/mL, the IC80 [27] was 2.8 µg/mL and the MPI [27] was 99.
Substance N49P11 (antibody) has an IC50 [16] of 10.6 µg/mL, an IC80 [16] of 29.3 µg/mL and an MPI [16] of 100. It also gave an IC50 [17] of 3.54 µg/mL, an IC80 [17] of 12.9 µg/mL and an MPI [17] of 100. It also gave an IC50 [18] of 0.72 µg/mL, an IC80 [18] of 3 µg/mL and an MPI [18] of 100. It also gave an IC50 [19] of 1.12 µg/mL, an IC80 [19] of 5.45 µg/mL and an MPI [19] of 100. It also gave an IC50 [20] of 0.635 µg/mL, an IC80 [20] of 2.29 µg/mL and an MPI [20] of 100. The IC50 [21] was 0.998 µg/mL, the IC80 [21] was 7.13 µg/mL and the MPI [21] was 100. It also gave an IC50 [22] of 0.889 µg/mL, an IC80 [22] of 4.45 µg/mL and an MPI [22] of 100. For the same substance, the IC50 [23] was 0.06 µg/mL, the IC80 [23] was 0.307 µg/mL and the MPI [23] was 100. For the same substance, the IC50 [24] was 0.091 µg/mL, the IC80 [24] was 0.387 µg/mL and the MPI [24] was 100. For the same substance, the IC50 [25] was 0.034 µg/mL, the IC80 [25] was 0.254 µg/mL and the MPI [25] was 100. The IC50 [26] was 1.84 µg/mL, the IC80 [26] was 10.4 µg/mL and the MPI [26] was 100. It also gave an IC50 [27] of 3.97 µg/mL, an IC80 [27] of 16.6 µg/mL and an MPI [27] of 100.
For N49P18.1 (antibody), the IC50 [16] was 16.1 µg/mL, the IC80 [16] was over 50 µg/mL and the MPI [16] was 79. For the same substance, the IC50 [17] was 5.71 µg/mL, the IC80 [17] was 23.1 µg/mL and the MPI [17] was 94. For the same substance, the IC50 [18] was 35.2 µg/mL, the IC80 [18] was over 50 µg/mL and the MPI [18] was 60. The IC50 [19] was 33.4 µg/mL, the IC80 [19] was over 50 µg/mL and the MPI [19] was 61. The IC50 [20] was 6.35 µg/mL, the IC80 [20] was 17.7 µg/mL and the MPI [20] was 98. For the same substance, the IC50 [21] was 3.48 µg/mL, the IC80 [21] was 20.8 µg/mL and the MPI [21] was 93. The IC50 [22] was 13.1 µg/mL, the IC80 [22] was 32.2 µg/mL and the MPI [22] was 93. For the same substance, the IC50 [23] was 2.46 µg/mL, the IC80 [23] was 6.65 µg/mL and the MPI [23] was 100. The IC50 [24] was 3.95 µg/mL, the IC80 [24] was 21.1 µg/mL and the MPI [24] was 96. For the same substance, the IC50 [25] was 1.16 µg/mL, the IC80 [25] was 6.93 µg/mL and the MPI [25] was 100. The IC50 [26] was over 50 µg/mL, the IC80 [26] was over 50 µg/mL and the MPI [26] was 19. The IC50 [27] was over 50 µg/mL, the IC80 [27] was over 50 µg/mL and the MPI [27] was 46.
Work on PG9 (antibody) yielded an IC50 [1] of 1.75 µg/mL, an IC80 [1] of 6.33 µg/mL and an IC50 [2] of over 50 µg/mL. It also gave an IC80 [2] of over 50 µg/mL, an IC50 [3] of 0.088 µg/mL and an IC80 [3] of 0.251 µg/mL. The IC50 [4] was 0.024 µg/mL, the IC80 [4] was 0.146 µg/mL and the IC50 [5] was 0.052 µg/mL. It also gave an IC80 [5] of 0.278 µg/mL, an IC50 [6] of 0.038 µg/mL and an IC80 [6] of 0.094 µg/mL. The IC50 [7] was 0.014 µg/mL, the IC80 [7] was 0.044 µg/mL and the IC50 [8] was over 50 µg/mL. The IC80 [8] was over 50 µg/mL, the IC50 [9] was 0.037 µg/mL and the IC80 [9] was 0.137 µg/mL. The IC50 [10] was 0.614 µg/mL, the IC80 [10] was 10.4 µg/mL and the IC50 [11] was 0.101 µg/mL. For the same substance, the IC80 [11] was 0.25 µg/mL, the IC50 [12] was 0.027 µg/mL and the IC80 [12] was 0.082 µg/mL. It also gave an IC50 [13] of 4.08 µg/mL, an IC80 [13] of over 50 µg/mL and an IC50 [14] of 0.256 µg/mL. It also gave an IC80 [14] of 6.69 µg/mL, an IC50 [15] of 0.166 µg/mL and an IC80 [15] of 1.41 µg/mL.
